According to the supplement of paper PMC12855868:

B1: library; numbered along this chain (parent)
chain: MAAAGGARLLRAASAVLGGPAGRWLHHAGSRAGSSGLLRNRGPGGSAEASRSLSVSARARSSSEDKITVHFINRDGETLTTKGKVGDSLLDVVVENNLDIDGFGACEGTLACSTCHLIFEDHIYEKLDAITDEENDMLDLAYGLTDRSRLGCQICLTKSMDNMTVRVPETVADARQSIDVGKTS

Variants of: B1
Assay: scaled log2 fold change in cell abundance, elesclomol vs control (0 = silent mean, 1 = nonsense mean) (scaled log2 ratio); higher = higher viability under elesclomol (loss of FDX1 cuproptosis function)
Settings: glucose 10 mM
Experimental: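 Deep mutational scan of full-length human FDX1: a pooled saturation-mutagenesis ORF library (every residue 2-184 mutated to all 19 amino acids plus stop, and silent codons where available) was expressed by lentivirus in FDX1-knockout ABC1 (14 days) or HEK293T (11 days) cells grown with elesclomol (ES) or DMSO control. Variant abundance came from ORF sequencing. The log2 fold change (ES vs control, mean of duplicates) was centred on the silent-variant mean (0) and scaled to the nonsense-variant mean (1). Higher values mean greater viability under ES, i.e. loss of FDX1 function in cuproptosis.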

[1] = with ABC1 FDX1 KO, elesclomol 5 nM, 14 days
[2] = with HEK293T FDX1 KO, elesclomol 40 nM, 11 days
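Further: variant abundance is its share of total variant reads in each endpoint sample, from next-generation sequencing of the integrated ORF PCR-amplified out of genomic DNA.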

Variant	scaled log2 fold change [1]	scaled log2 fold change [2]
A21T	-0.223	-0.058
A21V	0.197	–
A21Y	-0.187	–
G22A	0.412	–
G22C	-0.919	–
G22E	-0.42	-0.0922
G22F	0.555	–
G22H	0.331	0.022
G22I	0.314	0.699
G22K	0.385	0.488
G22L	-0.306	–
G22M	0.793	–
G22P	0.294	–
G22R	-0.188	–
G22T	-0.511	-0.29
G22V	0.245	–
G22Y	0.703	0.208
R23C	0.413	0.458
R23D	0.199	–
R23E	0.00775	–
R23I	0.309	–
R23K	0.498	–
R23M	0.474	-0.139
R23N	0.598	-0.335
R23P	-0.138	0.465

Variant	scaled log2 fold change [1]	scaled log2 fold change [2]
R23Q	0.00392	–
R23S	-0.477	–
R23T	-0.164	-0.141
R23W	0.348	0.553
R23Y	-0.603	–
W24C	0.00637	-0.0787
W24E	0.458	-0.438
W24F	0.286	0.448
W24H	0.42	-0.545
W24I	-0.0623	–
W24K	-0.318	-0.743
W24L	0.45	–
W24M	0.24	-0.653
W24N	-0.222	0.318
W24Q	-0.175	0.364
W24R	-0.838	-0.244
W24V	0.155	-0.39
L25A	-0.505	–
L25C	0.238	0.0546
L25D	-0.703	–
L25E	-0.135	-0.0782
L25G	-0.623	–
L25H	0.124	-0.423
L25K	0.14	1.29
L25M	0.607	1.17

Variant	scaled log2 fold change [1]	scaled log2 fold change [2]
L25N	-0.498	–
L25P	0.318	1.23
L25Q	-0.0213	-1.08
L25R	0.126	0.222
L25S	0.221	–
L25T	0.536	–
L25V	0.553	–
L25W	0.28	0.019
L25Y	0.423	0.926
H26A	0.684	1.75
H26C	-0.0138	–
H26D	0.267	0.193
H26E	0.356	0.955
H26F	0.206	-0.237
H26G	-0.196	-0.699
H26K	0.352	–
H26L	0.346	0.304
H26M	0.23	–
H26N	0.169	-0.198
H26P	-0.00391	–
H26Q	0.0786	1.39
H26R	-0.169	-0.571
H26S	0.241	–
H26T	0.206	0.037
H26W	0.101	-0.281

Variant	scaled log2 fold change [1]	scaled log2 fold change [2]
H26Y	0.147	-0.00505
H27A	-0.0135	0.337
H27C	0.145	-0.412
H27D	-0.0235	-0.507
H27E	-0.316	-0.0257
H27F	0.196	0.363
H27G	0.0381	-0.171
H27I	-0.11	1.23
H27K	0.325	0.621
H27L	0.396	–
H27M	0.0388	–
H27N	-0.105	0.565
H27P	-0.143	–
H27Q	0.286	-0.318
H27R	0.168	-0.247
H27S	0.273	–
H27T	-0.307	–
H27V	0.305	0.364
H27W	-0.436	0.305
H27Y	-0.231	0.0795
A28C	0.232	0.15
A28D	0.233	-0.109
A28E	0.301	-0.431
A28F	0.368	0.0914
A28G	0.336	1.17

Variant	scaled log2 fold change [1]	scaled log2 fold change [2]
A28H	-0.736	-0.127
A28I	-0.00142	0.691
A28K	-0.114	0.248
A28L	-0.00195	–
A28M	-0.0504	-0.198
A28N	-0.0865	-0.0101
A28P	0.56	0.292
A28Q	0.264	0.224
A28R	0.246	2.14
A28S	-0.179	-0.13
A28T	-0.152	–
A28V	0.133	-0.408
A28W	-0.122	0.863
A28Y	-0.00855	0.974
G29C	0.0521	-0.731
G29D	0.238	–
G29E	0.324	0.361
G29F	-0.118	-0.149
G29I	0.147	-1.13
G29K	-0.417	1.26
G29M	-0.124	-0.568
G29P	-0.415	-0.6
G29R	-0.244	-0.0867
G29S	0.00542	-0.441
G29T	-0.284	-0.357

Variant	scaled log2 fold change [1]	scaled log2 fold change [2]
G29V	-0.87	–
G29W	0.42	0.76
G29Y	-0.628	–
S30A	0.166	-0.0965
S30C	0.348	-0.559
S30D	0.413	0.89
S30E	0.181	-0.188
S30F	-0.244	-0.2
S30G	-0.403	0.208
S30H	0.109	0.106
S30I	0.0124	-0.232
S30K	0.428	-0.721
S30L	0.0325	–
S30M	0.423	-0.121
S30N	0.26	-0.64
S30Q	0.345	-0.23
S30R	0.119	–
S30T	-0.784	-0.554
S30V	0.222	-0.701
S30Y	-0.00883	-0.262
R31A	0.317	–
R31E	-0.00724	–
R31F	-0.116	0.357
R31G	0.358	-0.248
R31H	-0.603	–

Variant	scaled log2 fold change [1]	scaled log2 fold change [2]
R31I	0.762	–
R31M	0.66	–
R31N	-0.000941	–
R31P	0.561	-0.0123
R31Q	0.031	0.166
R31S	0.29	0.11
R31T	-0.552	-0.717
R31V	0.267	–
R31W	-0.118	-0.246
R31Y	0.463	-0.658
A32C	-0.309	-1.08
A32D	0.119	–
A32E	0.295	-0.00588
A32F	0.304	0.033
A32G	0.242	-0.0456
A32H	-0.58	-0.0637
A32I	0.101	0.722
A32N	-0.064	-0.0431
A32P	0.626	–
A32Q	0.0849	-0.338
A32R	0.589	1.44
A32S	0.0206	-0.496
A32T	-0.266	–
A32V	-0.114	–
A32W	-0.684	–

Variant	scaled log2 fold change [1]	scaled log2 fold change [2]
A32Y	0.0969	0.822
G33A	0.0776	0.0796
G33C	-0.0719	0.194
G33E	0.197	-0.759
G33F	0.0743	0.637
G33H	0.23	0.469
G33I	0.161	0.713
G33K	0.0454	0.247
G33L	-0.121	-1.21
G33M	0.0509	-0.453
G33N	0.0785	0.48
G33P	-0.0501	0.139
G33Q	-0.173	-0.043
G33R	-0.26	-0.362
G33S	0.208	-0.0845
G33T	0.154	0.176
G33V	0.127	0.731
G33W	-0.0437	0.197
G33Y	0.0588	0.657
S34A	-0.221	-0.449
S34C	0.0357	0.188
S34D	0.0928	-0.389
S34E	-0.124	-0.639
S34F	0.0028	-0.301
S34G	0.285	-0.277

Variant	scaled log2 fold change [1]	scaled log2 fold change [2]
S34H	0.251	-0.957
S34I	-0.128	-0.488
S34K	0.146	-0.467
S34L	0.0704	-0.513
S34M	-0.108	0.216
S34N	0.0794	0.424
S34P	-0.325	-0.116
S34Q	-0.0397	-0.168
S34R	-0.433	0.662
S34T	0.125	-0.0688
S34V	0.0515	-1.09
S34W	0.0117	0.853
S34Y	0.029	-0.188
S35A	-0.0215	0.327
S35C	0.0457	0.128
S35D	0.267	1.13
S35E	-0.0617	-0.644
S35F	-0.398	0.53
S35G	-0.212	-1.33
S35H	-0.513	1.67
S35I	0.293	0.132
S35K	0.175	0.17
S35L	-0.141	-0.673
S35M	0.309	0.0177
S35N	0.181	-0.653

Variant	scaled log2 fold change [1]	scaled log2 fold change [2]
S35P	-0.144	–
S35Q	0.169	0.0163
S35R	-0.768	-0.669
S35T	-0.263	0.526
S35V	0.123	-0.55
S35W	-0.0127	-0.259
S35Y	-0.531	-0.958
G36C	-0.121	0.501
G36D	-0.0689	0.737
G36E	0.292	0.257
G36F	-0.16	-0.239
G36H	0.443	-1.19
G36I	0.0053	-0.456
G36K	-0.118	-0.253
G36L	0.19	0.873
G36M	0.149	-0.00494
G36N	0.0293	0.187
G36Q	-0.138	0.311
G36R	-0.252	0.0429
G36S	0.168	-0.0207
G36T	0.266	0.704
G36V	-0.491	-0.262
G36W	-0.615	1.33
